Legend:
[1] = target: GSK3β (human, UniProt P49841 1-420, phosphorylated on the activation loop Tyr216); assay: BLI
[2] = target: T1, phospho-Ser45-β-catenin (pS45-β-catenin) (human, UniProt P35222 1-781, phosphoserine at 45); assay: BLI
T1 sequence: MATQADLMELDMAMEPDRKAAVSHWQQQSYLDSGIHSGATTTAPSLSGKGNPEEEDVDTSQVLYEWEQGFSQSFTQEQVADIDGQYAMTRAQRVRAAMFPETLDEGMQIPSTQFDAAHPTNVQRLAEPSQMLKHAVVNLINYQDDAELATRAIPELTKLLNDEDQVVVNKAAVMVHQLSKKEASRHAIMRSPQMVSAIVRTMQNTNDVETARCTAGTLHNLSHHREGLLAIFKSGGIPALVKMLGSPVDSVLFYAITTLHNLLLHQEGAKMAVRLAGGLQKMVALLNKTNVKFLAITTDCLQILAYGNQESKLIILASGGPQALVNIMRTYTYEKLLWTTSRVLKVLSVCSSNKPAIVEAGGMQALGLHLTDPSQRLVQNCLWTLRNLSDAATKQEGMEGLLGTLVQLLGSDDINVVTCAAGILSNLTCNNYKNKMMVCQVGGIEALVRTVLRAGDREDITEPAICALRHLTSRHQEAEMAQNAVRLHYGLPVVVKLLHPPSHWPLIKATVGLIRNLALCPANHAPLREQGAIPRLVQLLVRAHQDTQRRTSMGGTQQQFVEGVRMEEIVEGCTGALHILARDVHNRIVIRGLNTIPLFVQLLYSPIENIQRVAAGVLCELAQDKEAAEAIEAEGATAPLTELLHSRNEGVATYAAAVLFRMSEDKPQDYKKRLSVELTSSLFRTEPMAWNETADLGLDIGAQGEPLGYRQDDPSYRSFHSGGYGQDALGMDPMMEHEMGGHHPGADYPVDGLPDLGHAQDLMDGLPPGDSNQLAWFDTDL

GSK3β, sequence (P49841 whole entry): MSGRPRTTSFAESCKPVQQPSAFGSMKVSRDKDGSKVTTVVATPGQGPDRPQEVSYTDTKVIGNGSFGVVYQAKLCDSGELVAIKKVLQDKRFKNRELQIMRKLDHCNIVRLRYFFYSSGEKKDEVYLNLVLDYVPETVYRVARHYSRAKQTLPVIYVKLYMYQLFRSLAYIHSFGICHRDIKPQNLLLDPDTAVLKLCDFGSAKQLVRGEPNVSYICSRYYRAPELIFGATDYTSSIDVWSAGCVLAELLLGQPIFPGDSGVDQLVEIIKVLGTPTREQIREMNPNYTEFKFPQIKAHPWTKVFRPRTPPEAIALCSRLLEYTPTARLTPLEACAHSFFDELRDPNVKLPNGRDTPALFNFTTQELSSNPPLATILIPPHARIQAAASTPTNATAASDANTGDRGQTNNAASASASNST

Kd [1]: 16 nM
Kd [2]: 4000 nM
B1: Axin_(384-518) (miniAxin) (domain or fragment)
chain: EPQKFAEELIHRLEAVQRTREAEEKLEERLKRVRMEEEGEDGDPSSGPPGPCHKLPPAPAWHHFPPRCVDMGCAGLRDAHEENPESILDEHVQRVLRTPGRQSPGPGHRSPDSGHVAKMPVALGGAASGHGKHVP
